From PMC7994366, “LRRK2-phosphorylated Rab10 sequesters Myosin Va with RILPL2 during ciliogenesis blockade” (Life Science Alliance, 2021)

Key:
[1] = biological target: LRRK2-phosphorylated Rab10 (pRab10) (human (endogenous in HEK293T)) (UniProt P61026)
[2] = biological target: His6 Myosin Va GTD (1,464–1,855) (UniProt Q9Y4I1); assay: MST; Monolith NT.115; RED-NHS labelled His6-MyoVa GTD fixed at 100 nM, 16 serial dilutions of the unlabelled Rab/Mst3 reaction mixture (+ATP phosphorylated 2 h at 27°C; -ATP control); 50 mM Hepes pH 7.5, 5% glycerol, 150 mM NaCl, 5 mM MgCl2, 0.1 mM TCEP, GTP, 6 μM BSA, 0.01% Tween-20; 30 min in the dark at 25°C; Mst3 kinase present
[3] = biological target: T1, His6 Myosin Va GTD (1,464–1,855) (UniProt Q9Y4I1 1464-1855, labeled with RED-NHS 2nd Generation (amine reactive) dye (NT-647)); assay: MST; unphosphorylated Rab10
T1 chain: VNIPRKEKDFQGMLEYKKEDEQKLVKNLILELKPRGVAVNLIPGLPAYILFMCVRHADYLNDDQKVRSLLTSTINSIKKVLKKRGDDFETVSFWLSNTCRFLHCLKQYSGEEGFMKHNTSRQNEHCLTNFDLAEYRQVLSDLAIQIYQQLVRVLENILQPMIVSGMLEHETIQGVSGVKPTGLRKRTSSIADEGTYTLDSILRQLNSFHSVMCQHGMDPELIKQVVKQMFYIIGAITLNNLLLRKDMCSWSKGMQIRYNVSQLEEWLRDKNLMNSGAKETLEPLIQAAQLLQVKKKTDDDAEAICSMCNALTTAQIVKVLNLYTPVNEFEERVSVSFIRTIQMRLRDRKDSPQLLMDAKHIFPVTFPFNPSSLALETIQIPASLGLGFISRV

[4] = biological target: T1, His6 Myosin Va GTD (1,464–1,855); assay: MST; Rab8A phosphorylated by Mst3
[5] = biological target: T2, His6 Myosin Va GTD (1,464–1,855) (UniProt Q9Y4I1 1464-1855, labeled with RED-NHS 2nd Generation (amine reactive) dye (NT-647)); assay: MST; Monolith NT.115; RED-NHS labelled His6-MyoVa GTD fixed at 100 nM, 16 serial dilutions of the unlabelled Rab/Mst3 reaction mixture (+ATP phosphorylated 2 h at 27°C; -ATP control); 50 mM Hepes pH 7.5, 5% glycerol, 150 mM NaCl, 5 mM MgCl2, 0.1 mM TCEP, GTP, 6 μM BSA, 0.01% Tween-20; 30 min in the dark at 25°C; Mst3 kinase present; settings: both partners purified
T2 construct: Myosin Va globular tail domain, residues 1,464-1,855; bacterial expression plasmid a gift from Amir Khan; purified as described by Berndsen et al 2019 and Waschbüsch et al 2020; the limits differ from those of the mCherry construct m3 (1,421-1,880, mouse); also called His6-MyoVa GTD; purified MyoVa GTD; source: E. coli BL21 (DE3 pLys), purified (Ni-NTA, Superdex-75)

[6] = biological target: T1, His6 Myosin Va GTD (1,464–1,855); assay: MST; unphosphorylated Rab8A

Molecule “full-length MyoVa mCherry (natural protein)” has an FLIP in HeLa cells expressing R1441G LRRK2: half-time of fluorescence loss of MyoVa mCherry over the pericentriolar region of interest (adjacent cytoplasm t1/2 = 83 s; retention ameliorated by MLi-2) [1] of 4.53 min.

In the case of “His6 Rab10-Q63L (1–181) phosphorylated in vitro by Mst3 (from UniProt P61026 1-181) (domain or fragment)”, the Kd [2] is reported as 0.475 µM.

Molecule “MyoVa GTD-mCherry (1,421–1,880) (domain or fragment)” has an FLIP in HeLa cells expressing R1441G LRRK2: half-time of fluorescence loss of GTD-mCherry over the region of interest against adjacent cytoplasm; dependent on kinase activity [1] of 107 s.

B1: His6 Rab10-Q63L (1–181), non-phosphorylated (domain or fragment)
chain: MAKKTYDLLFKLLLIGDSGVGKTCVLFRFSDDAFNTTFISTIGIDFKIKTVELQGKKIKLQIWDTAGLERFHTITTSYYRGAMGIMLVYDITNGKSFENISKWLRNIDEHANEDVERMLLGNKCDMDDKRVVPKGKGEQIAREHGIRFFETSAKANINIEKAFLTLAEDILRKTPVKEPNS
In the case of B1, the Kd [3] is reported as greater than 18 µM.

B2: His6 Rab8A Q63L phosphorylated in vitro by Mst3 (natural protein)
chain: MAKTYDYLFKLLLIGDSGVGKTCVLFRFSEDAFNSTFISTIGIDFKIRTIELDGKRIKLQIWDTAGLERFRTITTAYYRGAMGIMLVYDITNEKSFDNIRNWIRNIEEHASADVEKMILGNKCDVNDKRQVSKERGEKLALDYGIKFMETSAKANINVENAFFTLARDIKAKMDKKLEGNSPQGSNQGVKITPDQQKRSSFFRCVLL
modifications: phosphorylated by Mst3 (residue not given)
For B2, the Kd [4] was 6.6 µM and the “fold weaker binding than pRab10” value [5] was roughly 14 fold.

B3: His6 Rab8A Q63L, non-phosphorylated (natural protein)
chain: B2 chain
Work on B3 yielded a Kd [6] greater than 29 µM.
